± gives the uncertainty stated by the source.
B1: Intersectin-1, residues 1156 to 1213; numbered along this chain, Q15811 (parent)
chain: AVCQVIGMYDYTAQNDDELAFNKGQIINVLNKEDPDWWKGEVNGQVGLFPSNYVKLTT

Variants of: B1
Assay: abundance fitness (aPCA) (normalised: wild type 0, dead -1); higher = more abundant; growth selection in yeast, the domain comes from the species named
Settings: Homo sapiens

Row | Variant | abundance fitness
1 | AVCQVIGMYDYTAQNDDELAFNKGQIINVLNKEDPDWWKGEVNGQVGLFQSNYVKLTT [P50Q] | -1.06 ± 0.26
2 | AVCQVIGMYDYTAQNDDELAFNKGQIINVLNKEDPDWWKGEVNGQVGLFKSNYVKLTT [P50K] | -0.547 ± 0.21
3 | AVCQVIGMYDYTAQNDDELAFNKGQIINVLNKEDPDWWKGEVNGQVGLFWSNYVKLTT [P50W] | -0.713 ± 0.14
4 | AVCQVIGMYDYTAQNDDELAFNKGQIINVLNKEDPDWWKGEVNGQVGLFHSNYVKLTT [P50H] | -0.973 ± 0.3
5 | AVCQVIGMYDYTAQNDDELAFNKGQIINVLNKEDPDWWKGEVNGQVGLFDSNYVKLTT [P50D] | -0.507 ± 0.19
6 | AVCQVIGMYDYTAQNDDELAFNKGQIINVLNKEDPDWWKGEVNGQVGLFISNYVKLTT [P50I] | -0.671 ± 0.35
7 | AVCQVIGMYDYTAQNDDELAFNKGQIINVLNKEDPDWWKGEVNGQVGLFFSNYVKLTT [P50F] | -0.459 ± 0.2
8 | AVCQVIGMYDYTAQNDDELAFNKGQIINVLNKEDPDWWKGEVNGQVGLFYSNYVKLTT [P50Y] | -0.932 ± 0.27
9 | AVCQVIGMYDYTAQNDDELAFNKGQIINVLNKEDPDWWKGEVNGQVGLFESNYVKLTT [P50E] | -0.847 ± 0.25
10 | AVCQVIGMYDYTAQNDDELAFNKGQIINVLNKEDPDWWKGEVNGQVGLFVSNYVKLTT [P50V] | -0.929 ± 0.18
11 | AVCQVIGMYDYTAQNDDELAFNKGQIINVLNKEDPDWWKGEVNGQVGLFLSNYVKLTT [P50L] | -0.873 ± 0.14
12 | AVCQVIGMYDYTAQNDDELAFNKGQIINVLNKEDPDWWKGEVNGQVGLFPINYVKLTT [S51I] | -0.751 ± 0.31
13 | AVCQVIGMYDYTAQNDDELAFNKGQIINVLNKEDPDWWKGEVNGQVGLFPFNYVKLTT [S51F] | -0.942 ± 0.2
14 | AVCQVIGMYDYTAQNDDELAFNKGQIINVLNKEDPDWWKGEVNGQVGLFPTNYVKLTT [S51T] | -0.312 ± 0.14
15 | AVCQVIGMYDYTAQNDDELAFNKGQIINVLNKEDPDWWKGEVNGQVGLFPVNYVKLTT [S51V] | -0.181 ± 0.095
16 | AVCQVIGMYDYTAQNDDELAFNKGQIINVLNKEDPDWWKGEVNGQVGLFPKNYVKLTT [S51K] | -0.09 ± 0.15
17 | AVCQVIGMYDYTAQNDDELAFNKGQIINVLNKEDPDWWKGEVNGQVGLFPRNYVKLTT [S51R] | -0.053 ± 0.093
18 | AVCQVIGMYDYTAQNDDELAFNKGQIINVLNKEDPDWWKGEVNGQVGLFPHNYVKLTT [S51H] | -0.517 ± 0.22
19 | AVCQVIGMYDYTAQNDDELAFNKGQIINVLNKEDPDWWKGEVNGQVGLFPYNYVKLTT [S51Y] | -0.927 ± 0.28
20 | AVCQVIGMYDYTAQNDDELAFNKGQIINVLNKEDPDWWKGEVNGQVGLFPQNYVKLTT [S51Q] | -0.452 ± 0.14
21 | AVCQVIGMYDYTAQNDDELAFNKGQIINVLNKEDPDWWKGEVNGQVGLFPPNYVKLTT [S51P] | -0.235 ± 0.12
22 | AVCQVIGMYDYTAQNDDELAFNKGQIINVLNKEDPDWWKGEVNGQVGLFPWNYVKLTT [S51W] | -0.877 ± 0.17
23 | AVCQVIGMYDYTAQNDDELAFNKGQIINVLNKEDPDWWKGEVNGQVGLFPGNYVKLTT [S51G] | -0.87 ± 0.12

Row | Variant | abundance fitness
24 | AVCQVIGMYDYTAQNDDELAFNKGQIINVLNKEDPDWWKGEVNGQVGLFPNNYVKLTT [S51N] | -0.506 ± 0.19
25 | AVCQVIGMYDYTAQNDDELAFNKGQIINVLNKEDPDWWKGEVNGQVGLFPLNYVKLTT [S51L] | -0.867 ± 0.17
26 | AVCQVIGMYDYTAQNDDELAFNKGQIINVLNKEDPDWWKGEVNGQVGLFPENYVKLTT [S51E] | -1.02 ± 0.23
27 | AVCQVIGMYDYTAQNDDELAFNKGQIINVLNKEDPDWWKGEVNGQVGLFPANYVKLTT [S51A] | -0.029 ± 0.089
28 | AVCQVIGMYDYTAQNDDELAFNKGQIINVLNKEDPDWWKGEVNGQVGLFPCNYVKLTT [S51C] | -0.504 ± 0.14
29 | AVCQVIGMYDYTAQNDDELAFNKGQIINVLNKEDPDWWKGEVNGQVGLRPSNYVKLTT [F49R] | -0.862 ± 0.09
30 | AVCQVIGMYDYTAQNDDELAFNKGQIINVLNKEDPDWWKGEVNGQVGLLPSNYVKLTT [F49L] | -0.527 ± 0.088
31 | AVCQVIGMYDYTAQNDDELAFNKGQIINVLNKEDPDWWKGEVNGQVGLAPSNYVKLTT [F49A] | -0.743 ± 0.11
32 | AVCQVIGMYDYTAQNDDELAFNKGQIINVLNKEDPDWWKGEVNGQVGLYPSNYVKLTT [F49Y] | -0.782 ± 0.28
33 | AVCQVIGMYDYTAQNDDELAFNKGQIINVLNKEDPDWWKGEVNGQVGLNPSNYVKLTT [F49N] | -0.431 ± 0.21
34 | AVCQVIGMYDYTAQNDDELAFNKGQIINVLNKEDPDWWKGEVNGQVGLQPSNYVKLTT [F49Q] | -0.661 ± 0.15
35 | AVCQVIGMYDYTAQNDDELAFNKGQIINVLNKEDPDWWKGEVNGQVGLPPSNYVKLTT [F49P] | -0.814 ± 0.18
36 | AVCQVIGMYDYTAQNDDELAFNKGQIINVLNKEDPDWWKGEVNGQVGLEPSNYVKLTT [F49E] | -0.816 ± 0.11
37 | AVCQVIGMYDYTAQNDDELAFNKGQIINVLNKEDPDWWKGEVNGQVGLDPSNYVKLTT [F49D] | -0.485 ± 0.19
38 | AVCQVIGMYDYTAQNDDELAFNKGQIINVLNKEDPDWWKGEVNGQVGLGPSNYVKLTT [F49G] | -0.829 ± 0.069
39 | AVCQVIGMYDYTAQNDDELAFNKGQIINVLNKEDPDWWKGEVNGQVGLSPSNYVKLTT [F49S] | -0.817 ± 0.12
40 | AVCQVIGMYDYTAQNDDELAFNKGQIINVLNKEDPDWWKGEVNGQVGLCPSNYVKLTT [F49C] | -0.871 ± 0.21
41 | AVCQVIGMYDYTAQNDDELAFNKGQIINVLNKEDPDWWKGEVNGQVGLWPSNYVKLTT [F49W] | -0.76 ± 0.096
42 | AVCQVIGMYDYTAQNDDELAFNKGQIINVLNKEDPDWWKGEVNGQVGLVPSNYVKLTT [F49V] | -0.391 ± 0.078
43 | AVCQVIGMYDYTAQNDDELAFNKGQIINVLNKEDPDWWKGEVNGQVGLMPSNYVKLTT [F49M] | -0.725 ± 0.12
44 | AVCQVIGMYDYTAQNDDELAFNKGQIINVLNKEDPDWWKGEVNGQVGLIPSNYVKLTT [F49I] | -0.184 ± 0.13
45 | AVCQVIGMYDYTAQNDDELAFNKGQIINVLNKEDPDWWKGEVNGQVGLTPSNYVKLTT [F49T] | -0.861 ± 0.18
46 | AVCQVIGMYDYTAQNDDELAFNKGQIINVLNKEDPDWWKGEVNGQVGLKPSNYVKLTT [F49K] | -0.84 ± 0.14
